Test results taken from patent publication US7067713.

Molecular target: C1s (Kordia, The Netherlands/Enzyme Research Lab. Inc., USA) (UniProt P09871)
Assay: cell-based or functional assay

Sequence of UniProt P09871 (P09871 16-688 limits assumed): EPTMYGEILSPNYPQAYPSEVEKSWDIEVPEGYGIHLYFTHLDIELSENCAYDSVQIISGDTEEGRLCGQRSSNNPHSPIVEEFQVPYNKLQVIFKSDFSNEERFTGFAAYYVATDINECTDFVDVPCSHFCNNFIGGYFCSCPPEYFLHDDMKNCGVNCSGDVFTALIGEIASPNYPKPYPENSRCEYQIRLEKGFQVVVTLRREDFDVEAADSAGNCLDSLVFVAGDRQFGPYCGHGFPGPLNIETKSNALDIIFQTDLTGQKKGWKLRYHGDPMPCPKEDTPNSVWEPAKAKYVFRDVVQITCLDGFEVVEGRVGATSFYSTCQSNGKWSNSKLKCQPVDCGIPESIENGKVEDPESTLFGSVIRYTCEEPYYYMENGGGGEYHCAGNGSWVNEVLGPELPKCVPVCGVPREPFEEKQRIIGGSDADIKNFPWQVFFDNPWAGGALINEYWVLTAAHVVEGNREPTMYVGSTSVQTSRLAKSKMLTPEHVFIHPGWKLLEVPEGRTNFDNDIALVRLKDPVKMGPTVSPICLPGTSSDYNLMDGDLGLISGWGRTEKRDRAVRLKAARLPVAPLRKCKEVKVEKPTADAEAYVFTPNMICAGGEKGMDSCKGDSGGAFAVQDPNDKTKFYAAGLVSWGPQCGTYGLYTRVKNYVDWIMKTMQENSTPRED

Row | functionality index (F.I.): ratio between functionally active C1 inhibitor (C1s inhibition test) and total C1 inhibitor antigen | Substance
1 | 1.07 | Cetor (C1 inhibitor purified from pooled human plasma, CLB, The Netherlands) (from UniProt P05155 23-500)
2 | 1.15 | recombinant human C1 inhibitor purified from milk of transgenic rabbit line 2972p (from UniProt P05155 23-500)
3 | 1.07 | recombinant human C1 inhibitor purified from milk of transgenic rabbit line 2972q (from UniProt P05155 23-500)
4 | 0.91 | recombinant human C1 inhibitor purified from milk of transgenic rabbit line 2977q (from UniProt P05155 23-500)
